# Data reported in patent US20240398973A1, “ENGINEERED ANTIBODY COMPOUNDS AND CONJUGATES THEREOF” (Eli Lilly and Company, priority 2017, published 2024).
# Where “and” joins values, the source holds several entries; their conditions need not be identical. Equal entries are not always repeated.
# B1: AME133-G1(IQ)-UC-HC-124C-378C: unconjugated AME133 (anti-CD20) IgG1(IQ) with HC 124C and 378C; HC SEQ ID NO:8, LC SEQ ID NO:9 (antibody)
# heavy: EVQLVQSGAEVKKPGESLKISCKGSGRTFTSYNMHWVRQMPGKGLEWMGAIYPLTGDTSYNQKSKLQVTISADKSISTAYLQWSSLKASDTAMYYCARSTYVGGDWQFDVWGKGTTVTVSSASTKGPCVFPLAPSSKSTSGGTAALGCLVKDYFPEPVTVSWNSGALTSGVHTFPAVLQSSGLYSLSSVVTVPSSSLGTQTYICNVNHKPSNTKVDKKVEPKSCDKTHTCPPCPAPELLGGPSVFLFPPKIKDTLMISRTPEVTCVVVDVSHEDPEVKFNWYVDGVEVHNAKTKPREEQYNSTYRVVSVLTVLHQDWLNGKEYKCKVSNKALPAPIEKTISKQKGQPREPQVYTLPPSRDELTKNQVSLTCLVKGFYPSDICVEWESNGQPENNYKTTPPVLDSDGSFFLYSKLTVDKSRWQQGNVFSCSVMHEALHNHYTQKSLSLSPG
# light: EIVLTQSPGTLSLSPGERATLSCRASSSVPYIHWYQQKPGQAPRLLIYATSALASGIPDRFSGSGSGTDFTLTISRLEPEDFAVYYCQQWLSNPPTFGQGTKLEIKRTVAAPSVFIFPPSDEQLKSGTASVVCLLNNFYPREAKVQWKVDNALQSGNSQESVTEQDSKDSTYSLSSTLTLSKADYEKHKVYACEVTHQGLSSPVTKSFNRGEC
# modifications: SITE 128 THIOETH - position 128 is cysteine residue modified by thioether bond formation to maleimide-polyethylene glycol (PEG) linker; SITE 382 THIOETH - position 382 is cysteine residue modified by thioether bond formation to maleimide-polyethylene glycol (PEG) linker
# B2: Emibetuzumab-G4(PAA)-UC-HC-124C-375C: unconjugated emibetuzumab IgG4(PAA) with HC 124C and 375C; HC SEQ ID NO:4, LC SEQ ID NO:5 (antibody)
# heavy: QVQLVQSGAEVKKPGASVKVSCKASGYTFTDYYMHWVRQAPGQGLEWMGRVNPNRRGTTYNQKFEGRVTMTTDTSTSTAYMELRSLRSDDTAVYYCARANWLDYWGQGTTVTVSSASTKGPCVFPLAPCSRSTSESTAALGCLVKDYFPEPVTVSWNSGALTSGVHTFPAVLQSSGLYSLSSVVTVPSSSLGTKTYTCNVDHKPSNTKVDKRVESKYGPPCPPCPAPEAAGGPSVFLFPPKPKDTLMISRTPEVTCVVVDVSQEDPEVQFNWYVDGVEVHNAKTKPREEQFNSTYRVVSVLTVLHQDWLNGKEYKCKVSNKGLPSSIEKTISKAKGQPREPQVYTLPPSQEEMTKNQVSLTCLVKGFYPCDIAVEWESNGQPENNYKTTPPVLDSDGSFFLYSRLTVDKSRWQEGNVFSCSVMHEALHNHYTQKSLSLSLG
# light: DIQMTQSPSSLSASVGDRVTITCSVSSSVSSIYLHWYQQKPGKAPKLLIYSTSNLASGVPSRFSGSGSGTDFTLTISSLQPEDFATYYCQVYSGYPLTFGGGTKVEIKRTVAAPSVFIFPPSDEQLKSGTASVVCLLNNFYPREAKVQWKVDNALQSGNSQESVTEQDSKDSTYSLSSTLTLSKADYEKHKVYACEVTHQGLSSPVTKSFNRGEC
# modifications: SITE 122 THIOETH - position 122 is cysteine residue modified by thioether bond formation to maleimide-polyethylene glycol (PEG) linker; SITE 370 THIOETH - position 370 is cysteine residue modified by thioether bond formation to maleimide-polyethylene glycol (PEG) linker
# How the values were obtained:
# [1] = system: Daudi B lymphoblast cells; assay: PMN-mediated killing of DAUDI tumor cells (xCelligence); format: cell-based, human; details: 6 hours, mean ± SD, n=4, normalized to Buffer control
# Description: (§1) Antibody-targeted killing of tumor cells by PMNs is measured using the xCelligence Real Time Cell Analysis system (ACEA Biosciences). This system monitors cell viability in real time by recording electrical impedance between sensors on the growth surface of culture plates. It reports a normalized cell index (NCI) that is normalized to control cells in parallel wells and allows one to control for relative culture viability. NCIs are measured continuously at 15 minute intervals for 24 hours following incubation of tumor cultures with targeted antibodies and addition of human primary PMNs at a 10:1 PMN to tumor cell ratio. Prior to seeding with tumor cells, xCelligence 96-well E-Plates are calibrated for background signal. Each well receives 50 μl of culture medium (RPMI+10% FBS+antibiotics) and the E-plate is equilibrated to 37° C. in a humidified incubator containing the xCelligence plate reader.
# (§2) After equilibration, E-Plate well variations in background are measured. Cultured tumor cell lines are dissociated, counted and diluted to a final density of 1×10^5 cells/ml in culture medium and 100 μl of diluted tumor cells were plated into E-Plate wells. The E-Plate is returned to the xCelligence reader and cell indices are measured in 15 minute intervals overnight to establish baseline.
# (§3) The next day, PMNs are isolated from fresh human blood samples and brought to a final density of 2×10^6 cells/ml in culture medium. Following overnight recording, the E-Plate is removed from the xCelligence reader and 22 μl of 10× antibody solution or buffer is added to designated wells. After 15 minutes, 50 μl of diluted PMNs (1×10^5 total cells) or buffer was added to designated wells. Immediately after PMN addition, the E-Plate is returned to the xCelligence reader and cell indices were measured for up to 72 hours. After completion of the experiment, cell indices are normalized (NCI) to the time point immediately preceding the addition of antibodies.
# (§4) Percent NCI is defined as ((NCI of sample)/(NCI of Tumor Cells Alone)×100). For non-adherent tumor cells (Daudi cells), the xCelligence Immunotherapy Kit-B Cell Killing Assay (ACEA #8100004) is used to tether the tumor cells to E-Plate wells according to manufacturer protocols. Following tethering and background acquisition, the protocols are performed as indicated above.
# Non-adherent, CD20+ Daudi B lymphoblast cells are immobilized with xCelligence Immunotherapy Kit (ACEA #8100004) to tether the tumor cells to E-Plate wells according to manufacturer protocols, and are exposed to conditions shown below in Table 16. Percent NCI values represent relative viability of DAUDI cells following 6 hours of exposure to the stated conditions. Values are given as mean percentage normalized to “Buffer control” ±SD; n=4 for all conditions. Statistical significance was determined by one-way ANOVA followed by post-hoc Dunnett's multiple comparisons test vs “+PMN”.
# human primary PMNs = assay: PMN reactive oxygen species (ROS) production, luminol-amplified chemiluminescence; format: cell-based; details: for PMN ROS production: relative to 1000 nM fMLF, AUC 5 minutes (Tables 9, 11)
# Description: Production of ROS by human primary PMNs is measured using luminol-amplified chemiluminescence. Following isolation, PMNs are suspended at 1×10^6 cells/ml in HBSS containing calcium and magnesium (Gibco #14025-092) supplemented with 0.25% human serum albumin (Gemini Bio producst #800-124) and 50 uM Luminol (SigmaAldrich #123072-2.5G). 100 μl of cell suspension (1×10^5 total cells) is then distributed into each well of a 96-well plate suitable for fluorescence measurement (Greiner #655098) and temperature equilibrated to 37° C. for 5 minutes. Following equilibration, 10× solution of antibody conjugate is applied to the wells, achieving a 1× final concentration.
# Immediately after the addition of antibody conjugate, chemiluminescence signal is recorded in a luminometer maintained at 37° C. with 0.01 seconds dwell time per well, 20 seconds total time between sequential plate readings and 45 minutes total run time (PerkinElmer EnVision Multilabel Plate Reader).
# [2] = system: A549 human lung carcinoma cells; assay: PMN-mediated killing of A549 tumor cells (xCelligence); format: cell-based; details: 2 hours, mean ± SD, n=4
# Description: as §1, §2, §3, §4
# Adherent MET(+) A549 human lung carcinoma cells are plated for approximately 24 hours, then incubated with Emibetuzumab-G4-fMLFK-HC-124C-375C or emibetuzumab-G4-UC-HC-124C-375C and exposed to primary human PMNs at 10:1 effector to target cell ratio.
# Percent NCI values represent relative viability of A549 cells following 2 hours of exposure to the stated conditions. Values are given as mean percentage normalized to “+PMN” control±SD; n=4 for all conditions. Statistical significance was determined by one-way ANOVA followed by post-hoc Dunnett's multiple comparisons test vs “+PMN”. NCI, normalized cell index; PMN, primary human polymorphonuclear neutrophils; ns, not significant.
molecule,measurement,setting,value
B1,Percent NCI,[1]; 10 nM + PMN,58.7 ± 13.2%
same,Percent NCI,[1]; 10 nM without PMN,97.7 ± 1.4%
same,Percent NCI,[1]; 30 nM + PMN,93.4 ± 22.4%
same,Percent NCI,"[1]; 30 nM without PMN, listed as AME133-G1(IQ)-UC-124C-378C",97.3±1.2% and 97.3 ± 0.6%
same,Percent NCI,[1]; 100 nM + PMN,114 ± 6.9%
same,Percent NCI,[1]; 100 nM without PMN,90.9 ± 0.6%
same,Percent NCI,[1]; 300 nM + PMN,113.2 ± 7.2%
same,Percent NCI,[1]; 300 nM without PMN,87.7 ± 1.5%
same,PMN ROS production,human primary PMNs; 1 nM,10.3 percentage
same,PMN ROS production,human primary PMNs; 3 nM,10.6 percentage
same,PMN ROS production,human primary PMNs; 10 nM,10.6 percentage
same,PMN ROS production,human primary PMNs; 30 nM,10.5 percentage
same,PMN ROS production,human primary PMNs; 100 nM,10.3 percentage
same,"PMN ROS production, Exposure: Buffer","human primary PMNs; 300 nM, Buffer, relative to fMLF, AUC 5 minutes (Table 12a)",25.3 percentage
same,"PMN ROS production, Exposure: Cyclosporin H","human primary PMNs; 300 nM, PMNs pre-incubated with 1 uM Cyclosporin H for 30 minutes, relative to fMLF (Table 12a)",19.7 percentage
same,PMN ROS production,human primary PMNs; 300 nM,11.4 percentage
same,PMN ROS production,human primary PMNs; 1000 nM,13.9 percentage
B2,Percent NCI,"[2]; A549, 3 nM + PMN",102.3 ± 1.7%
same,Percent NCI,"[2]; A549, 3 nM without PMN",101.3 ± 0.7%
same,Percent NCI,"[2]; A549, 10 nM + PMN",102.5 ± 1.9%
same,Percent NCI,"[2]; A549, 10 nM + PMN, listed as emibetuzumab-G4-UC-HC-124C-375C",102.5±1.9%
same,Percent NCI,"[2]; A549, 10 nM without PMN",100.8 ± 1%
same,Percent NCI,"[2]; A549, 30 nM + PMN",102.7 ± 1.5%
same,Percent NCI,"[2]; A549, 30 nM without PMN",100.1 ± 0.9%
same,Percent NCI,"[2]; A549, 100 nM + PMN",102.9 ± 1.5%
same,Percent NCI,"[2]; A549, 100 nM without PMN",100.8 ± 1.4%
same,Percent NCI,"[2]; A549, 300 nM + PMN",102.3 ± 1.8%
same,Percent NCI,"[2]; A549, 300 nM without PMN",102.8 ± 4.9%
